Measured values published in PMC5053164.

How the values were obtained:
[1] = yield of purified secreted protein, SDS-PAGE; settings: glycan lost; control: wild type
[2] = expression yield of multisite mutants; settings: glycan lost; control: wild type

Protein | expression_or_secretion [1] | expression_or_secretion, percent_of_wt [2]
DORN1 extracellular domain (atDORN1-ECD; LecRK-I.9): N124D (protein) parent chain: MARWLLQILIISSLHLSSVSSQQETSFVYESFLDRQNLYLDKSAIVLPSGLLQLTNASEHQMGHAFHKKPIEFSSSGPLSFSTHFVCALVPKPGFEGGHGIVFVLSPSMDFTHAESTRYLGIFNASTNGSSSYHVLAVELDTIWNPDFKDIDHNHVGIDVNSPISVAIASASYYSDMKGSNESINLLSGNPIQVWVDYEGTLLNVSVAPLEVQKPTRPLLSHPINLTELFPNRSSLFAGFSAATGTAISDQYILWWSFSIDRGSLQRLDISKLPEVPHPRAPHKKVSTLIILLPVCLAILVLAVLAGLYFRRRRKYSEVSETWEKEFDAHRFSYRSLFKATKGFSKDEFLGKGGFGEVYRGNLPQGREIAVKRVSHNGDEGVKQFVAEVVSMRCLKHRNLVPLFGYCRRKRELLLVSEYMPNGSLDEHLFDDQKPVLSWSQRLVVVKGIASALWYLHTGADQVVLHRDVKASNIMLDAEFHGRLGDFGMARFHEHGGNAATTAAVGTVGYMAPELITMGASTGTDVYAFGVFMLEVTCGRRPVEPQLQVEKRHMIKWVCECWKKDSLLDATDPRLGGKFVAEEVEMVMKLGLLCSNIVPESRPTMEQVVLYLNKNLPLPDFSPYTLGIGTFAPVLVDASSLVVSSASWSLSGPSMSSSSPNHSPYAWQSTDQPWGQTIDTKNSLHIVAEPEKPSPAVKMVTLPAEDPQSNHSSISSQRVQPVKREKRRLHQILVAFPWINKQYFKLGLPKHIVHVSLFFFLQLARL | no change | –
DORN1 extracellular domain (atDORN1-ECD; LecRK-I.9): N124N204D (protein) parent chain: MARWLLQILIISSLHLSSVSSQQETSFVYESFLDRQNLYLDKSAIVLPSGLLQLTNASEHQMGHAFHKKPIEFSSSGPLSFSTHFVCALVPKPGFEGGHGIVFVLSPSMDFTHAESTRYLGIFNASTNGSSSYHVLAVELDTIWNPDFKDIDHNHVGIDVNSPISVAIASASYYSDMKGSNESINLLSGNPIQVWVDYEGTLLNVSVAPLEVQKPTRPLLSHPINLTELFPNRSSLFAGFSAATGTAISDQYILWWSFSIDRGSLQRLDISKLPEVPHPRAPHKKVSTLIILLPVCLAILVLAVLAGLYFRRRRKYSEVSETWEKEFDAHRFSYRSLFKATKGFSKDEFLGKGGFGEVYRGNLPQGREIAVKRVSHNGDEGVKQFVAEVVSMRCLKHRNLVPLFGYCRRKRELLLVSEYMPNGSLDEHLFDDQKPVLSWSQRLVVVKGIASALWYLHTGADQVVLHRDVKASNIMLDAEFHGRLGDFGMARFHEHGGNAATTAAVGTVGYMAPELITMGASTGTDVYAFGVFMLEVTCGRRPVEPQLQVEKRHMIKWVCECWKKDSLLDATDPRLGGKFVAEEVEMVMKLGLLCSNIVPESRPTMEQVVLYLNKNLPLPDFSPYTLGIGTFAPVLVDASSLVVSSASWSLSGPSMSSSSPNHSPYAWQSTDQPWGQTIDTKNSLHIVAEPEKPSPAVKMVTLPAEDPQSNHSSISSQRVQPVKREKRRLHQILVAFPWINKQYFKLGLPKHIVHVSLFFFLQLARL | – | decreases
DORN1 extracellular domain (atDORN1-ECD; LecRK-I.9): N128D (protein) parent chain: MARWLLQILIISSLHLSSVSSQQETSFVYESFLDRQNLYLDKSAIVLPSGLLQLTNASEHQMGHAFHKKPIEFSSSGPLSFSTHFVCALVPKPGFEGGHGIVFVLSPSMDFTHAESTRYLGIFNASTNGSSSYHVLAVELDTIWNPDFKDIDHNHVGIDVNSPISVAIASASYYSDMKGSNESINLLSGNPIQVWVDYEGTLLNVSVAPLEVQKPTRPLLSHPINLTELFPNRSSLFAGFSAATGTAISDQYILWWSFSIDRGSLQRLDISKLPEVPHPRAPHKKVSTLIILLPVCLAILVLAVLAGLYFRRRRKYSEVSETWEKEFDAHRFSYRSLFKATKGFSKDEFLGKGGFGEVYRGNLPQGREIAVKRVSHNGDEGVKQFVAEVVSMRCLKHRNLVPLFGYCRRKRELLLVSEYMPNGSLDEHLFDDQKPVLSWSQRLVVVKGIASALWYLHTGADQVVLHRDVKASNIMLDAEFHGRLGDFGMARFHEHGGNAATTAAVGTVGYMAPELITMGASTGTDVYAFGVFMLEVTCGRRPVEPQLQVEKRHMIKWVCECWKKDSLLDATDPRLGGKFVAEEVEMVMKLGLLCSNIVPESRPTMEQVVLYLNKNLPLPDFSPYTLGIGTFAPVLVDASSLVVSSASWSLSGPSMSSSSPNHSPYAWQSTDQPWGQTIDTKNSLHIVAEPEKPSPAVKMVTLPAEDPQSNHSSISSQRVQPVKREKRRLHQILVAFPWINKQYFKLGLPKHIVHVSLFFFLQLARL | no change | –
DORN1 extracellular domain (atDORN1-ECD; LecRK-I.9): N204D (protein) parent chain: MARWLLQILIISSLHLSSVSSQQETSFVYESFLDRQNLYLDKSAIVLPSGLLQLTNASEHQMGHAFHKKPIEFSSSGPLSFSTHFVCALVPKPGFEGGHGIVFVLSPSMDFTHAESTRYLGIFNASTNGSSSYHVLAVELDTIWNPDFKDIDHNHVGIDVNSPISVAIASASYYSDMKGSNESINLLSGNPIQVWVDYEGTLLNVSVAPLEVQKPTRPLLSHPINLTELFPNRSSLFAGFSAATGTAISDQYILWWSFSIDRGSLQRLDISKLPEVPHPRAPHKKVSTLIILLPVCLAILVLAVLAGLYFRRRRKYSEVSETWEKEFDAHRFSYRSLFKATKGFSKDEFLGKGGFGEVYRGNLPQGREIAVKRVSHNGDEGVKQFVAEVVSMRCLKHRNLVPLFGYCRRKRELLLVSEYMPNGSLDEHLFDDQKPVLSWSQRLVVVKGIASALWYLHTGADQVVLHRDVKASNIMLDAEFHGRLGDFGMARFHEHGGNAATTAAVGTVGYMAPELITMGASTGTDVYAFGVFMLEVTCGRRPVEPQLQVEKRHMIKWVCECWKKDSLLDATDPRLGGKFVAEEVEMVMKLGLLCSNIVPESRPTMEQVVLYLNKNLPLPDFSPYTLGIGTFAPVLVDASSLVVSSASWSLSGPSMSSSSPNHSPYAWQSTDQPWGQTIDTKNSLHIVAEPEKPSPAVKMVTLPAEDPQSNHSSISSQRVQPVKREKRRLHQILVAFPWINKQYFKLGLPKHIVHVSLFFFLQLARL | no change | –
DORN1 extracellular domain (atDORN1-ECD; LecRK-I.9): N124N128D (protein) parent chain: MARWLLQILIISSLHLSSVSSQQETSFVYESFLDRQNLYLDKSAIVLPSGLLQLTNASEHQMGHAFHKKPIEFSSSGPLSFSTHFVCALVPKPGFEGGHGIVFVLSPSMDFTHAESTRYLGIFNASTNGSSSYHVLAVELDTIWNPDFKDIDHNHVGIDVNSPISVAIASASYYSDMKGSNESINLLSGNPIQVWVDYEGTLLNVSVAPLEVQKPTRPLLSHPINLTELFPNRSSLFAGFSAATGTAISDQYILWWSFSIDRGSLQRLDISKLPEVPHPRAPHKKVSTLIILLPVCLAILVLAVLAGLYFRRRRKYSEVSETWEKEFDAHRFSYRSLFKATKGFSKDEFLGKGGFGEVYRGNLPQGREIAVKRVSHNGDEGVKQFVAEVVSMRCLKHRNLVPLFGYCRRKRELLLVSEYMPNGSLDEHLFDDQKPVLSWSQRLVVVKGIASALWYLHTGADQVVLHRDVKASNIMLDAEFHGRLGDFGMARFHEHGGNAATTAAVGTVGYMAPELITMGASTGTDVYAFGVFMLEVTCGRRPVEPQLQVEKRHMIKWVCECWKKDSLLDATDPRLGGKFVAEEVEMVMKLGLLCSNIVPESRPTMEQVVLYLNKNLPLPDFSPYTLGIGTFAPVLVDASSLVVSSASWSLSGPSMSSSSPNHSPYAWQSTDQPWGQTIDTKNSLHIVAEPEKPSPAVKMVTLPAEDPQSNHSSISSQRVQPVKREKRRLHQILVAFPWINKQYFKLGLPKHIVHVSLFFFLQLARL | – | decreases
